Consider four molecules from patent publication US20150299313A1 (Chugai, published 2015).

One may read the Kd as the equilibrium constant for the complex coming apart.

The target in assay [1] is T1, soluble human IL-6 receptor (human, UniProt P08887 20-357).
T1 construct: also called hsIL-6R; hIL6R
T1 sequence: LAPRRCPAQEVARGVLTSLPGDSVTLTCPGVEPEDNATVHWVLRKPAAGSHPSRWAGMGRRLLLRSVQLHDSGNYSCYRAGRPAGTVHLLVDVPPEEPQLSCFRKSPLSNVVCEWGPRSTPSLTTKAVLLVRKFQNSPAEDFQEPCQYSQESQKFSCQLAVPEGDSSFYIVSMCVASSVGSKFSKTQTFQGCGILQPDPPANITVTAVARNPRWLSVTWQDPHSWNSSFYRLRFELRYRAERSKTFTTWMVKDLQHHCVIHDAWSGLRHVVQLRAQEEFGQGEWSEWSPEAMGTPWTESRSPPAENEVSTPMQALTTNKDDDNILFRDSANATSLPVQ
Description: SPR (Biacore T100), antibody captured on anti-human IgG F(ab')2, human IL-6 receptor as analyte, 37 C, pH 6.0. As to the method: (§1) Using Biacore T100 (GE Healthcare), kinetic analysis of antigen-antibody reactions between each of GL1-IgG1_kif+ and GL5-IgG1_kif+ and a human IL-6 receptor was performed. An appropriate amount of Anti-Human IgG (γ-chain specific) F(ab′)2 fragment antibody produced in goat (Sigma) was immobilized onto Sensor chip CM5 (GE Healthcare) by the amine coupling method and then a target antibody was allowed to capture. Subsequently, a human IL-6 receptor dilution solution and a running buffer (a blank) were injected at a flow rate of 20 μL/min for 3 minutes to allow the human IL-6 receptor to interact with the antibody captured on the sensor chip. Either one of two types of running buffers (pH 7.4 and pH 6.0 containing 10 mmol/L ACES, 150 mmol/L NaCl, and 0.05% (w/v) Tween20) was used, and each buffer was employed for dilution of IL-6R. Thereafter, a running buffer was fed at a flow rate 20 μL/min for 5 minutes. After dissociation of the IL-6 receptor was observed, a 10 mmol/L Glycine-HCl (pH 1.5) solution was injected at a flow rate of 30 μL/min for 5 seconds. This procedure was repeated five times to regenerate the sensor chip. All samples were measured at 37° C. […] From the values, KD (M) of each antibody to a human IL-6 receptor was calculated. Individual parameters were calculated by use of Biacore T100 Evaluation Software (GE Healthcare).
On the technique in general: SPR reads the build-up and loss of mass on a sensor chip optically.

In assay [2] the target is T1, soluble human IL-6 receptor. Put plainly: SPR (Biacore T100), antibody captured on anti-human IgG F(ab')2, human IL-6 receptor as analyte, 37 C, pH 7.4. As to the method:
as §1

For assay [3] the target is unchanged. Description: SPR (Biacore T100), pH 7.4, 37 C. As to the method: (§2) All samples were measured at 37° C.
(§3) Individual parameters were calculated by use of Biacore T100 Evaluation Software (GE Healthcare).

Assay [4] shares this target. Description: SPR (Biacore T100), 3 uM CaCl2, pH 7.4, 37 C (summary table). As to the method:
as §2
From the sensorgram obtained by measurement, an association constant, ka (1/Ms) and a dissociation constant kd (1/s) as kinetics parameters were computationally obtained. From the values, KD (M) of each antibody to a human IL-6 receptor was calculated. Individual parameters were calculated by use of Biacore T100 Evaluation Software (GE Healthcare).
as §3

Assay [5] has the same target. Description: SPR (Biacore T100), 3 uM CaCl2, pH 7.4, 37 C; roughly calculated by Req=C*Rmax/(KD+C)+RI; 3 µM CaCl2; KD estimated by Expression 1.

Numbering of substitutions follows the chain as printed.

B1: GL1-IgG1_kif+ (antibody)
heavy: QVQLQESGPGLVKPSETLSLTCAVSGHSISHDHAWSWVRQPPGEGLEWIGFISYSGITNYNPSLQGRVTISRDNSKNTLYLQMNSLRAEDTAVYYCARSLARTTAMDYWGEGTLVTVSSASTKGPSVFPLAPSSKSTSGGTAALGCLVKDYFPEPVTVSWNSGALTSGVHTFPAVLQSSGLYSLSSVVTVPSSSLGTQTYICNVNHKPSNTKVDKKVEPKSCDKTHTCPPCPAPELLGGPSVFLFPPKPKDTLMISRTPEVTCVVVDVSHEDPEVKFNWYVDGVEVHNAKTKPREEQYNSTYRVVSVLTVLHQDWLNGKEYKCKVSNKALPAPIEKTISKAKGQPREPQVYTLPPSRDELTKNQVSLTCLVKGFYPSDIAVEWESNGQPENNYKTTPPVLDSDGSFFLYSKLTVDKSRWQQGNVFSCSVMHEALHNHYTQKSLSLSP
light: DIQMTQSPSSLSASVGDSVTITCQASTDISSHLNWYQQKPGKAPELLIYYGSHLLSGVPSRFSGSGSGTDFTFTISSLEAEDAATYYCGQGNRLPYTFGQGTKVEIERTVAAPSVFIFPPSDEQLKSGTASVVCLLNNFYPREAKVQWKVDNALQSGNSQESVTEQDSKDSTYSLSSTLTLSKADYEKHKVYACEVTHQGLSSPVTKSFNRGEC
modifications: high mannose sugar chain (expressed in the presence of kifunensine)
notes: Expressed with 10 ug/mL kifunensine in the culture; also called GL1-G1_kif+
For the molecule B1, the Kd in assay [1] is 71 nM; in assay [2] it was 1.5 nM.

B2: GL5-IgG1_kif+ (antibody)
heavy: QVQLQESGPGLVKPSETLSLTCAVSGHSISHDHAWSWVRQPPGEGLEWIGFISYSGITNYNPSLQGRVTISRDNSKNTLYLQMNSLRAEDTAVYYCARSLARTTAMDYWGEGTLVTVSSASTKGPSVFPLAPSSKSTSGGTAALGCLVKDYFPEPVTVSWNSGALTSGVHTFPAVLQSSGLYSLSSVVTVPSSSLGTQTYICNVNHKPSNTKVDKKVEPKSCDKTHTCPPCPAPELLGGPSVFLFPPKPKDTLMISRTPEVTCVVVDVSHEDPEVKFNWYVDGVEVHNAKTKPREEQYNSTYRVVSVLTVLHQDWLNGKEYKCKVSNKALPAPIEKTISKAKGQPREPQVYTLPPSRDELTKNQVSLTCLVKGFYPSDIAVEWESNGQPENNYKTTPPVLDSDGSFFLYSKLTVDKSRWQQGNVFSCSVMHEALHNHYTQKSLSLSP
light: B1 light with S18N, Q24N
modifications: two high mannose N-linked sugar chains (Man6-Man9 with Man9) on the light chain; high mannose sugar chain (expressed in the presence of kifunensine)
notes: Expressed with 10 ug/mL kifunensine in the culture; also called GL5-G1_kif+
With B2, the figures for the Kd in assay [1] and in assay [2] were 66 nM and 1.4 nM, respectively.

B3: 6RL#9-IgG1 (antibody, V domains shown)
VH: QVQLVQSGAEVKKPGASVKVSCKASGYTFTSYYMHWVRQAPGQGLEWMGIINPSGGSTSYAQKFQGRVTMTRDTSTSTVYMELSSLRSEDTAVYYCARDDPGGGEYYFDYWGQGTLVTVSS
VL: QSVLTQPPSVSGAPGQRVTISCTGSRSNMGAGYDVHWYQLLPGAAPKLLISHNTHRPSGVPDRFSGSKSGASASLAITGLQAEDEADYYCQSHDSSLSAVVFGGGTKLTVLS
notes: Ca-dependent anti-IL-6R antibody from a human phage library
Regarding B3, the “Ca dependency (KD at 3 uM CaCl2 against KD at 2 mM CaCl2)” value in assay [3] is ≥ 120 fold. Further, the results for the Kd in assay [4] and in assay [5] were ≥ 31000 nM and ~31000 nM, respectively.

B4: FH4-IgG1 (antibody, V domains shown)
VH: QVQLVQSGAEVKKPGSSVKVSCKASGGTFSSYAISWVRQAPGQGLEWMGGIIPIFGTANYAQKFQGRVTITADESTSTAYMELSSLRSEDTAVYYCARERDYYDSSGYYDAFDIWGQGTMVTVSS
VL: ETTVTQSPSFLSASVGDRVTITCITTTDIDDDMNWFQQEPGKAPKLLISEGNILRPGVPSRFSSSGYGTDFTLTISKLQPEDFATYYCLQSDNLPFTFGQGTKLEIKR
notes: as for B3
As for B4, the “Ca dependency (KD at 3 uM CaCl2 against KD at 2 mM CaCl2)” value in assay [3] is ≥ 60 fold. Also, the values for the dissociation constant (Kd) in assay [4] and in assay [5] were ≥ 34000 nM and ~34000 nM, respectively.
